This is an account of results in patent US20110287023A1 (AstraZeneca / MedImmune, published 2011).

Positions count from the first letter of the chain named.

In test [1] the target is T1, activated HMG1 from LPS stimulated THP-1 cells (human, UniProt P09429 1-215).
T1 sequence (looked up): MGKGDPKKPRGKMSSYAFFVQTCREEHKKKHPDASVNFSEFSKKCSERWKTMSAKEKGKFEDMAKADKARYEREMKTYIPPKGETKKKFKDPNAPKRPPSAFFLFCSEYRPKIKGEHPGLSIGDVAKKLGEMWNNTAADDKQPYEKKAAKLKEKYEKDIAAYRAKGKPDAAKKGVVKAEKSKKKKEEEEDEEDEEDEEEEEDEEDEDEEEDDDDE
Briefly: cell-based or functional assay.

In test [2] the target is T2, HMG2 coated on ELISA plates (Bos taurus (Bovine), UniProt P40673 2-209).
T2 construct: also called HMGB2; HMBG2
T2 sequence: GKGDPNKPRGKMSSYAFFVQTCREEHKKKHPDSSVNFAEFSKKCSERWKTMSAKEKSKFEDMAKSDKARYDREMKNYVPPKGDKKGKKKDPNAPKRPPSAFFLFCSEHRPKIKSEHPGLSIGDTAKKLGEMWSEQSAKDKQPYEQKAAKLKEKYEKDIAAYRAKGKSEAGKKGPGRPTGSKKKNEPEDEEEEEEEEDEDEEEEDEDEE
Briefly: direct ELISA, HMGB2 coated at 5 ug/mL, antibody at 10 ug/mL, anti-human kappa/lambda-HRP, OD 490. The protocol:
Binding to HMG1 vs. HMG2: Ultra high-binding ELISA plates (ThermoLab systems, #3855) were coated with either 5 ug/mL of Calf thymus HMGB1 or HMBG2 diluted in 10 mM Phosphate buffered saline (PBS), pH 7.2 and incubate overnight at 4 degrees. The plates were washed twice with Ca and Mg free PBS and 100 microliters of anti-HMGB1 antibody diluted in 10 mM PBS, pH 7.2+1% bovine serum albumin (BSA) to a final concentration of 10 ug/mL was added to each well and the plates were incubated 1 hour at room temperature. The wells were washed three times with 100 μl of PBS, pH 7.2. HRP labeled goat-anti-human IgG Kappa-chain (KPL, #14-10-10) and goat-anti-human IgG Lambda-chain (KPL, #14-10-11) were diluted in 10 mM PBS+1% BSA 1:1000 and 100 μl were added to each well and incubated for 1 hour at room temperature. The wells were then washed three times with 100 μl of PBS, pH 7.2. OPD substrate (Pierce chemical company, #34006) was prepared following the manufacturers instructions and 100 μl of prepared substrate was added to each well and the plates incubated at room temperature in the dark for 20-30 minutes. The reaction was stopped with the addition of 100 μl of 2M H₂SO₄, and the plates read on a plate reader at a wavelength of 490 nm.

Test [3] deals with T3, HMGB1 B-box peptide 108-138 (UniProt P09429 108-138, biotinylated).
T3 peptide (looked up): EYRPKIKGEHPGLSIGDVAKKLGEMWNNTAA
Briefly: ELISA on biotinylated overlapping peptides. The method, then:
(§1) The plate was then blocked with 4% milk powder dissolved in PBS at 37° C. for 1 hour. The blocking solution was removed and replaced with human anti-HMG1 antibodies at various concentrations (see FIGS. 5A-B). […] HRP activity was detected with Sureblue HRP substrate (KPL). Plates were read at 450 nm using a Kinetic Microplate Reader (Molecular Devices). […] After washing and blocking with 1% BSA in PBS, the biotinylated peptides were individually added into the avidin coated wells and incubated for 30 min at room temperature. The serial diluted antibody G4, S16 and S6 at the initial concentration at 10 μg/ml were then transferred into the wells followed by adding mouse anti human IgG-HRP conjugate (Pierce). Detection was accomplished by adding 50 μl of tetramethylbenzidine (TMB) substrate (KPL) and the absorbance was read at 450 nm.

In test [4] the target is T4, HMGB1 C-terminal tail peptide 188-215 (UniProt P09429 188-215, biotinylated).
T4 peptide (looked up): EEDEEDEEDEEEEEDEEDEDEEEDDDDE
Briefly: ELISA on biotinylated overlapping peptides. The protocol: as §1

For test [5], the target named is T2, HMG2 coated on ELISA plates. Kind of test: direct ELISA, HMGB2 coated at 5 ug/mL, OD 490. In short, it runs like this:
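Calf thymus HMGB1 or HMGB2 coated at 5 ug/mL in 10 mM PBS pH 7.2 overnight at 4 °C; anti-HMGB1 antibody added at 10 ug/mL final in PBS + 1% BSA, 1 h at room temperature. Detection with HRP anti-human kappa plus lambda (1:1000, 1 h), OPD substrate 20-30 min in the dark, H₂SO₄ stop, absorbance 490 nm.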

Test [6] has as its target T5, HMGB1 in sera of septic peritonitis mice (mouse, UniProt P63158 1-215).
T5 construct: also called HMGB1 from sepsis sera (ELISA); peritonitis sera HMGB1
T5 sequence (looked up): T1 sequence (looked up) with E189D, D202E
Kind of test: sandwich ELISA: antibody captured on anti-human Fc, peritonitis serum added, mouse anti-HMGB1 detection, OD 450. The protocol:
HMGB1 Detection from Biological Samples: For detection of the HMGB1 from AIA joint homogenates and peritonitis sera, sandwich ELISA was performed. Goat anti-human Fc (Pierce) 14 μg/ml in PBS was coated on Immunlon IV microtiter plate over night at 4° C. After washing and blocking with 5% milk 1 hr at room temperature, G4 or S6 in blocking buffer (10 μg/ml) were added to each well of the blocked plate. The plate was washed 1 hour later and 25 μl of AIA homogenates containing 0.8 μg/ml of HMGB1 or peritonitis sera containing 7 μg/ml of HMGB1 in 0.5 M NaCl/blocking buffer were added to the wells at two fold serial dilutions. The unbound materials were removed by washing one hr after incubation. The bound HMGB1 was detected by a mouse anti-HMGB1 antibody at 2 μg/ml followed by an anti-mouse antibody conjugated with horseradish peroxidase. Mouse peritonitis sera was obtained by heart puncture 7 days after infection with heat killed staphylococcus aureus. Joint lysate was prepared from the whole paw of AIA rats as described in Example 6 below. Human sepsis sera were purchased from a commercial source.

B1: human anti-HMG1 antibody E11 (antibody, IgG1, V domains shown)
VH: EVQLLESGGGLVQPGGSLRLSCAASGFTFSRYQMNWVRQAPGKGLEWVSSISPSGGHTHYADSVKGRFTISRDNSKNTLYLQMNSLRAEDTAVYYCAKDGRQGKISTVDHWGQGTLVTVSS
VL: DIQMTQSPGTLSLSPGERATLSCRASQSVRSNFLAWYQQKPGQAPRLLIYGASRRASGIPDRFSGSGFGADFTLSISRLEPEDFAVYYCQQYGSSPNTFGQGSRVEIK
notes: full length IgG1 made from a human Fab phage clone
With B1, in test [1], the “IC50 nm IL-6 Native HMGB” value was 1.73 nM. Besides, the binding result in test [2] was “binds”.

B2: human anti-HMG1 antibody S16 (antibody, IgG1, V domains shown)
VH: EVQLLESGGGLVQPGGSLRLSCAASGFTFSWYSMLWVRQAPGKGLEWVSYISPSGGFTNYADSVKGRFTISRDNSKNTLYLQMNSLRAEDTAVYYCARWDYNSGWYYDHWGQGTLVTVSS
VL: DIQMTQSPDTLSLSPGERATLSCRASQSVNSRNLAWYQQKPGQAPRLLIYGASTRATGIPDRFSGSVSGTEFTLTISSLQPDDFATYYCQQYNSYFTFGQGTKLEIK
notes: full length IgG1 made from a human Fab phage clone; also called ATCC PTA-6259
For B2, in test [1], the “IC50 nm IL-6 Native HMGB” value turned out to be 38.9 nM. Besides, the binding result in test [2] is “binds”.

B3: human anti-HMG1 antibody G4 (antibody, IgG1, V domains shown)
VH: EVQLLESGGGLVQPGGSLRLSCAASGFTFSWYDMTWVRQAPGKGLEWVSSISPSGGYTKYADSVKGRFTISRDNSKNTLYLQMNSLRAEDTAVYYCTTEFYDYLDVWGKGTTVTVSS
VL: DIQMTQSPGTLSLSPGEGATLSCRASQSVSSTYLAWYQQKPGQAPRLLIYEASKRATGTPARFSGSGSGTDFTLSISSLEPEDFAVYYCQHRHNWPPQWTFGQGTKVEVK
notes: full length IgG1 made from a human Fab phage clone; also called ATCC PTA-6258
Take B3: the binding result in test [3] is “binds”; in test [4], “binds”; in test [5], “no binding (tested: 10 ug/mL (single concentration))”.

B4: human anti-HMG1 antibody S6 (antibody, V domains shown)
VH: EVQLLESGGGLVQPGGSLRLSCAASGFTFSWYDMSWVRQAPGKGLEWVSRISPSGGYTMYADSVKGRFTISRDNSKNTLYLQMNSLRAEDTAVYYCARLEVGATSGGTAFDIWGQGTMVTVSS
VL: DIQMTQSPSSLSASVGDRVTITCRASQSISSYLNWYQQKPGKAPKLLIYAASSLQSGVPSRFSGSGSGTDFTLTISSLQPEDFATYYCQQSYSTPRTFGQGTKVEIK
notes: full length IgG1 made from a human Fab phage clone; two paragraphs print 'S4' for the PTA-6143 deposit; also called ATCC PTA-6143
Take B4: the binding result in test [5] is on record as “no binding (tested: 10 ug/mL (single concentration))”; in test [6] it was “binds”.
